# In the supplement of paper PMC12042874:
# ± gives the uncertainty stated by the source.
# Test: amyloid nucleation score (Sup35N fusion, yeast selection) (log enrichment); library NNK3; higher = more nucleation; inactive = no reads after selection
# How it was run: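 Libraries of peptides of 20 random codons fused to Sup35N were expressed in psi-negative yeast and induced 24 hours with 100 μM copper sulfate. Selection was 7 days at 30°C on medium lacking adenine and uracil, and plasmid inserts were Illumina-sequenced before and after selection. Nucleation score is the DiMSum log enrichment of output over input reads, centred on the mode score of non-aggregating sequences, and sequences with under 100 input reads were left out.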
row,Substance,amyloid nucleation score
1,SLSIMYIFTWDGPYIECTFY,2.71 ± 0.069
2,TFNRWCLVFLLMHNVLVCEW,0.185 ± 0.33
3,KDLRYTVFEVWDKYWPLTGL,inactive
4,NLNRSLVFFSCDYAGCDGCT,1.48 ± 0.077
5,DSKMLCCCCWPVRN,1.42 ± 0.12
6,SMLGHKIN,inactive
7,FCPPADGRVTGTCDLFLTNS,inactive
8,RSRILMYYYKISLFYRIKVM,inactive
9,RDTYQSSCDWQW,0.077 ± 0.87
10,VFKWWM,1.2 ± 0.16
11,ASHMMQRIMTRQ,-0.308 ± 0.84
12,KSESEGFNNSIRPWCMFCVS,inactive
13,KVVARYRRKVCYNWHISEEK,inactive
14,FMSRMRKWFGCSNTHSSGTR,1.77 ± 0.078
15,HRRSMQLWG,inactive
16,FGSCSEVFSYVAYLRGINDF,inactive
17,IIHLENMPICQGALIDGLAL,inactive
18,VGGQISRDNGCLSILMSFDN,inactive
19,FSEIVDYRGGIYGSYLNESM,inactive
20,RITIMFGSLINDLHFCNA,2.87 ± 0.052
21,YAETPRFIRFY,-0.137 ± 0.78
22,PSVWFFSTETFMVRCPADC,0.549 ± 0.33
23,LVVKFSLDKWPRQNVSSLAS,inactive

row,Substance,amyloid nucleation score
1,SGAFYAHHHLSRLLTDEDIS,inactive
2,FFLIDYIYWVGIFNYSLILV,inactive
3,EYGSATVVWNHYFSPWVRFF,-0.213 ± 0.9
4,TLTYTKYYHFNCNRTLYESV,0.665 ± 0.16
5,QYICTLTCSYFLGSMTIEHK,-0.022 ± 0.66
6,RCRDGTILALC,inactive
7,FYIFNWGFFGIKWYLIWNEI,inactive
8,YMGPKDSELDSNRAGCDMSC,inactive
9,FKAMTFAYGYLTVGLSVVGV,inactive
10,FCIQSVFCCT,2.88 ± 0.071
11,WYCVAEYGHFKCPSRKYVFG,inactive
12,KASLPNR,inactive
13,QSLSVEH,inactive
14,IYTNWYEFRV,inactive
15,HFSSYAFLRTWTLYRHLTFM,inactive
16,SKAMWLSLM,inactive
17,LLMGFWIWFINGVCNVRTDS,inactive
18,CYRSISRRDPS,inactive
19,MVCISL,inactive
20,SGSKKCAFRHVRIHFRLTAG,inactive
21,KIWYLSIYVYFYVYYLDGSL,inactive
22,CQQIWRLGQCVQLLFCTRSK,1.31 ± 0.11
23,VSLTGWSR,inactive

row,Substance,amyloid nucleation score
1,CFAHSLMR,inactive
2,RVFYCNL,1.6 ± 0.059
3,CKMRVILKFIKNL,0.48 ± 0.16
4,KRLVGLYIYTGMWLKLLQLV,inactive
5,SMCCCNILDLNRN,3.11 ± 0.057
6,YCTFDVCGFSSASSEGFNTA,0.465 ± 0.32
7,VVLCLFFLLDIFSTGKVYIK,inactive
8,TESPNYLYRI,inactive
9,RVYMPAAKSINYEPNITRM,inactive
10,RSVVVIYKRCGLYLKS,inactive
11,YIRIDTGLLCVCGLSQEGVV,inactive
12,MSLGFALVSILVCF,inactive
13,CSVVSWFEAGFRFNDLMNGV,inactive
14,ASLRCINFMCWLSQTLGVLL,inactive
15,GNSVRIAWQVWCTLCMTRQW,0.356 ± 0.22
16,SSEVYQALPPMS,inactive
17,NVNEQSHPM,inactive
18,AAPMS,inactive
19,FGSLRCFGWLAWSICVNMYY,inactive
20,VECNIEIHNISSFPSTEKNQ,2.41 ± 0.06
21,CICWQHDKVVAYSLSDAGMA,inactive
22,RFYGYTLY,inactive
23,CQLLHMELDNARRCEIKKPA,inactive

row,Substance,amyloid nucleation score
1,RVDPTSRMSGIYHWILT,inactive
2,WVCMVNSRRSCIRNS,0.381 ± 0.75
3,MPIGTSSYFFSQKICHYTSR,1.77 ± 0.09
4,IYYSRHEYSDCV,inactive
5,LNWLAFSR,inactive
6,RLLLSGSSVAICCGQLGLGF,2.11 ± 0.097
7,ISFCYALCCNKMKRLLARCK,inactive
8,IPLYHSWSVASLRLRNVVSW,inactive
9,VAKLKRTWTVWLVIYSRKSW,inactive
10,WLWDVDDYGNPLWVRHASVA,inactive
11,TCAIPHLKCSFLLYFGQYGC,inactive
12,ICTKSALYQTMLS,inactive
13,WPLYGLDWNPLGFNLRWYKF,inactive
14,RMYWAV,1.02 ± 0.19
15,RSVFTTSCH,inactive
16,TFALFLGWIMPTSGGDTGYY,0.037 ± 0.39
17,VVMKGTRMVKVKERGSGKDY,inactive
18,CRWEVCVVLFLMNCDKNGSC,inactive
19,YDKQENVEGLFALF,inactive
20,NRAGGICDKIRAQGYSYHSM,0.475 ± 0.72
21,NLDQHCRCVIGFAITYYVGY,inactive
22,SVKNWPNVN,inactive
23,GAGWTQAIAFIQS,inactive

row,Substance,amyloid nucleation score
1,TGDRIWTIGFFGEPNGVLKG,inactive
2,SISSEALVFYFRIAGTVIKR,inactive
3,TNPLYYRS,inactive
4,ELNRDDCEGSSATPQRDFNV,inactive
5,AMTCNDYSRYVF,inactive
6,SVGRYA,-0.306 ± 0.41
7,KGGTLRRLTLSGTGTSQPSE,inactive
8,LYSFSANNDMVHMYRNQVRF,inactive
9,VMKHHALGLEEWPQYTSYAW,inactive
10,EFQNISWYTKLEGEYCGEMV,inactive
11,GDFLNCAFLTKIFEHQNNFW,1.85 ± 0.077
12,FTVGILFGNLHLEFGVKVND,1.6 ± 0.071
13,YMRSIGSIFFILYCMQSAHG,0.121 ± 0.33
14,NWLDWLGRPPRDIGAWNGSS,inactive
15,YFYLSICDVSMVGSEFIYSR,0.373 ± 0.2
16,RHSQFTVVFCNRGRCAGLAA,inactive
17,RLLSAV,inactive
18,ADVCNAFRVISICLYAIIVL,inactive
19,ADFGLHRNCRRGCLGMFFL,inactive
20,QDIELMFSFFDGKAFSSYHL,-0.787 ± 0.98
21,HRSIRLYSETDWFRGLGSAG,inactive
22,MALWASSKAEVIVVIKCLGD,inactive
23,LFLISG,inactive

row,Substance,amyloid nucleation score
1,AFYYRVELVYLAC,inactive
2,DWTGNMGDNHSTRVFRRKRD,inactive
3,LLAVLALVGLC,inactive
4,PGSYGHGGWNTEFGCQVAIW,-0.593 ± 1.9
5,TYVIFCYTVSHDDSHRTLYN,2.19 ± 0.084
6,TYYNHIRLVYLIGAKRWEEL,inactive
7,GVAIAYHEFVDCSFFNYNIV,2.38 ± 0.054
8,MTPGFCLPK,inactive
9,LRSCSSWRRLFKRIVQRHWV,inactive
10,YILNITNLWSLCLCRLCRKD,3.08 ± 0.078
11,FLPDKGYTWKGTLWRWESNN,inactive
12,FKTCLGPQSTLVKGEVESHT,inactive
13,SYLCVATWSCPHYVGFSQHI,inactive
14,NNVFERQFRHLNSVDGPIDN,inactive
15,VLRCTSPIES,inactive
16,RFRMHIIYKRKGIACVRSTS,inactive
17,LSILHYSLNCLYHRSYMCIL,inactive
18,INQRVYESWLAFV,inactive
19,NREQLSSNKRNFASHRWTSV,inactive
20,RSVFCKKFPDKNMVVFGVHL,inactive
21,SLIDRIIVKPKVWTGGKNYP,inactive
22,IFFVYLLSANIGCYEWDVVP,0.821 ± 0.12
23,CLPWHWMLNYFGYKNVKS,inactive

row,Substance,amyloid nucleation score
1,FGLTTRRRPRNVW,inactive
2,VFDYADDYYTVNGTVLSPAE,-0.283 ± 0.32
3,GICEMVGTSYTFE,inactive
4,QLVLPSFMVTLSCG,inactive
5,KSYISVRK,0.57 ± 0.18
6,ICRLVLSNNF,inactive
7,VSGFERVHGKGSN,inactive
8,LSEFYPAMRSTTTPVQNVSG,inactive
9,SLNNYFYSTNYETSFTLD,inactive
10,IRDASWTKNLEFECLLFKPS,inactive
11,LFFFMALRVGLPNNTNMGMK,inactive
12,FSDMCGRSFINSSWGGSAGV,inactive
13,MSRTKPLGF,inactive
14,SFYRMRVIHSLDYAKVKSTL,0.772 ± 0.2
15,LFEGDQDGMRVCSHHMVFMI,inactive
16,CMSPYALGEISKRRVEVDSY,inactive
17,MHATIMVVDRESFHGLGWKS,inactive
18,YVSKVYLDH,inactive
19,WILFCKNGAVTNLLVWECLC,inactive
20,LPHVAVEAVTLAMWVE,inactive
21,FFLAASPISRNWWSSSLGHS,inactive
